Test results taken from patent publication US20090298169A1, “Pancreatic and Liver Endoderm Cells and Tissue by Differentiation of Definitive Endoderm Cells Obtained from Human Embryonic Stems” (The University of Georgia Research Foundation, priority 2006, published 2009).

Tested on: BG02 hESCs
Assay: QRT-PCR of mesendoderm, definitive endoderm and other lineage transcripts in hESCs differentiated in defined media
Assay type: cell-based, human
Details: FIG. 7; Wnt3a 25 ng/ml; over 72 hours of treatment
Experimental: For DE differentiation, media was replaced after ˜18-24 hours with differentiation media (a), in the presence or absence of Wnt3a (25 ng/ml). RNA was prepared from cultures at times indicated and subject to QRT-PCR analysis of T, MixL1, GSC, Sox17 and CXCR4 transcripts. QRT-PCR reactions are normalized to GAPDH control. ‘Assays on demand’ QRT-PCR reactions were from Applied Biosystems and have been described previously (McLean et al., 2007).
BG02 hESCs were plated in defined conditions (a) and after 18 hours media was switched to differentiation media (a) with Wnt3a (25 ng/ml) for the first 24 hours. The time course proceeded for 96 hours. Untreated hESCs (96 hours) or cells in differentiation media (a) were collected at 24, 48, 72 and 96 hours for QRT-PCR analysis. ‘Assays on demand’ QRT-PCR reactions were from Applied Biosystems and have been described previously (McLean et al., 2007).
Culture of hESCs: Methods: hESCs are preferably grown in MEF-CM (details from previous filings) or defined media using Matrigel (1:200 dilution) as a growth matrix (for example). Cells are passaged manually or by using enzymatic methods such as collagenase or accutase and typically plated at 1×10^6 per 60 mm dish for 12-24 hours in hESC media then media is changes to promote DE differentiation (see ‘Differentiation media’ below). During differentiation, ‘differentiation media’ is replaced every day. […]

B1: Wnt3a: growth factor Wnt3a (25 ng/ml, R&D Systems) (protein, UniProt P56704 19-352, looked up)
Protein Wnt-3a: SYPIWWSLAVGPQYSSLGSQPILCASIPGLVPKQLRFCRNYVEIMPSVAEGIKIGIQECQHQFRGRRWNCTTVHDSLAIFGPVLDKATRESAFVHAIASAGVAFAVTRSCAEGTAAICGCSSRHQGSPGKGWKWGGCSEDIEFGGMVSREFADARENRPDARSAMNRHNNEAGRQAIASHMHLKCKCHGLSGSCEVKTCWWSQPDFRAIGDFLKDKYDSASEMVVEKHRESRGWVETLRPRYTYFKVPTERDLVYYEASPNFCEPNPETGSFGTRDRTCNVSSHGIDGCDLLCCGRGHNARAERRREKCRCVFHWCCYVSCQECTRVYDVHTCK
amount of CXCR4 mRNA produced, presence versus absence of Wnt3a: improves the amount of CXCR4 mRNA produced
